In this assay the target is soluble αβ-tubulin heterodimer (bovine) (UniProt Q6B856). Briefly: ITC. On the technique in general: ITC needs no label: the signal is the heat of the interaction.

B1: MEKK1 TOG domain, MEKK1(542–888) (domain or fragment)
chain: THYGTQQIPPAYKDLAEPWIQVFGMELVGCLFSRNWNVREMALRRLSHDVSGALLLANGESTGNSGGSSGSSPSGGATSGSSQTSISGDVVEACCSVLSMVCADPVYKVYVAALKTLRAMLVYTPCHSLAERIKLQRLLQPVVDTILVKCADANSRTSQLSISTLLELCKGQAGELAVGREILKAGSIGIGGVDYVLNCILGNQTESNNWQELLGRLCLIDRLLLEFPAEFYPHIVSTDVSQAEPVEIRYKKLLSLLTFALQSIDNSHSMVGKLSRRIYLSSARMVTTVPHVFSKLLEMLSVSSSTHFTRMRRRLMAIADEVEIAEAIQLGVEDTLDGQQDSFLQAS
B1 displayed an equilibrium dissociation constant (Kd) of 630 nM and a stoichiometry N of 1.

As a reminder, the Kd is a measure of binding affinity in units of concentration. A high value points to lower affinity. A word on the stoichiometry N: it is a count of units in the complex or per binding partner.

Source of the values: doi:10.1101/2020.04.07.030676.
